# Measured values taken from paper PMC10326835 (microLife, 2023).
# Read-outs that look alike come from different tables or passages of the source.
# T1: RelA (Escherichia coli, UniProt P0AG20)
# T1 sequence (P0AG20 1-744): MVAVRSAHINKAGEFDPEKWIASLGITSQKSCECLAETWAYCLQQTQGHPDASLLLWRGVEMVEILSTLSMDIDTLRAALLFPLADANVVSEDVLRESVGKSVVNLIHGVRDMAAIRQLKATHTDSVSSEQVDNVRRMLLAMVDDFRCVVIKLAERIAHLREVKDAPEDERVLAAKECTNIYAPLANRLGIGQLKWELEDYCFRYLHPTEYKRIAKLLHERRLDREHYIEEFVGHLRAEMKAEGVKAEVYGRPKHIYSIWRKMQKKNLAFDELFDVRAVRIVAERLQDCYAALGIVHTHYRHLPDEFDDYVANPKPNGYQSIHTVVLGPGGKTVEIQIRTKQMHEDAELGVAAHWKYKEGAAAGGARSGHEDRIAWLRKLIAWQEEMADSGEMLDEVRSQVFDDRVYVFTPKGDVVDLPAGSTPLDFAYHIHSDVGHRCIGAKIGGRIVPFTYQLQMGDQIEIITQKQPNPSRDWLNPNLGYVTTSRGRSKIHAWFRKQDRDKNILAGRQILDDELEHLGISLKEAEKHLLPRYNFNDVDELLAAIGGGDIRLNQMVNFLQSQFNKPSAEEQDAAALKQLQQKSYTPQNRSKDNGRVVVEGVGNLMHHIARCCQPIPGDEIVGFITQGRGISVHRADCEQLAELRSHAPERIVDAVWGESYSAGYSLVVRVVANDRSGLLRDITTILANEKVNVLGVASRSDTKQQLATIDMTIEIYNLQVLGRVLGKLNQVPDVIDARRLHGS
# T2: ^strepLpxA (E. coli, UniProt P0A722 1-262)
# T2 sequence: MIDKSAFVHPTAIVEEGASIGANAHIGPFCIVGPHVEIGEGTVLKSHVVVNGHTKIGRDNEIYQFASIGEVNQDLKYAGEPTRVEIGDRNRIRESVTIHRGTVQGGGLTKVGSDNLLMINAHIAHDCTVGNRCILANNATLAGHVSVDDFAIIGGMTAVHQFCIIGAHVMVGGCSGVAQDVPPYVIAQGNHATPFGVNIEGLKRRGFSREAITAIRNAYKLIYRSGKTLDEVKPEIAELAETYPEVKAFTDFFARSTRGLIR
# B1: ^His-SUMORnhA (enzyme, E. coli, UniProt P0A7Y4 1-155, looked up)
# chain: MLKQVEIFTDGSCLGNPGPGGYGAILRYRGREKTFSAGYTRTTNNRMELMAAIVALEALKEHCEVILSTDSQYVRQGITQWIHNWKKRGWKTADKKPVKNVDLWQRLDAALGQHQIKWEWVKGHAGHPENERCDELARAAAMNPTLEDTGYQVEV
# modifications: fluorescently labeled with the His-Tag Labeling Kit RED-tris-NTA
# B2: ^HisRnhA (enzyme, E. coli, UniProt P0A7Y4 1-155, looked up)
# chain: B1 chain
# modifications: fluorescently labeled with the His-Tag Labeling Kit RED-tris-NTA
# B3: LpxA (Escherichia coli K-12) (protein)
# chain: T2 sequence
# B4: ^HisRnhB (enzyme, E. coli, UniProt P10442 1-198, looked up)
# chain: MIEFVYPHTQLVAGVDEVGRGPLVGAVVTAAVILDPARPIAGLNDSKKLSEKRRLALYEEIKEKALSWSLGRAEPHEIDELNILHATMLAMQRAVAGLHIAPEYVLIDGNRCPKLPMPAMAVVKGDSRVPEISAASILAKVTRDAEMAALDIVFPQYGFAQHKGYPTAFHLEKLAEHGATEHHRRSFGPVKRALGLAS
# modifications: fluorescently labeled with the His-Tag Labeling Kit RED-tris-NTA
# B5: ^His-SUMORnhB (enzyme, E. coli, UniProt P10442 1-198, looked up)
# chain: B4 chain
# modifications: fluorescently labeled with the His-Tag Labeling Kit RED-tris-NTA
# Key:
# SpeF = SpeF (Escherichia coli, UniProt P24169); assay: DRaCALA with […]-ppGpp in overexpression lysate; assay type: cell-based
# Chain of SpeF (P24169 whole entry): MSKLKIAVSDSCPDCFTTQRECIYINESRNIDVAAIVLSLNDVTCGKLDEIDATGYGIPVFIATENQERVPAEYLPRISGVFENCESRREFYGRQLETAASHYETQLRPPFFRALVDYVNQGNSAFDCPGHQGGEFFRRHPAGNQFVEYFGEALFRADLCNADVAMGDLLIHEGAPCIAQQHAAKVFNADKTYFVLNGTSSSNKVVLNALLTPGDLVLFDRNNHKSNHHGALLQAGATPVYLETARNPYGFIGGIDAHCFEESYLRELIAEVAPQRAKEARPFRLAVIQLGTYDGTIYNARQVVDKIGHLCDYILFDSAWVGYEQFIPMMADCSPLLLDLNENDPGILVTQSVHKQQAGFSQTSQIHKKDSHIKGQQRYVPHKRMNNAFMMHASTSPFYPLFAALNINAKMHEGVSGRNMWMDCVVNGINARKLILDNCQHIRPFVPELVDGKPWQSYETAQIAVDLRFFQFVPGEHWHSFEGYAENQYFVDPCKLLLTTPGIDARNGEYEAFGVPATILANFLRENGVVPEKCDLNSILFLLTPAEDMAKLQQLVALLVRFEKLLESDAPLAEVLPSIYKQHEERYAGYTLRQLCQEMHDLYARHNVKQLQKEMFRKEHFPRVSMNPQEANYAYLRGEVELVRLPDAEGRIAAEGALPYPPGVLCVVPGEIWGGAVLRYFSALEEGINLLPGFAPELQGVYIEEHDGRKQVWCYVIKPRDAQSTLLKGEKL
# ObgE = ObgE (Escherichia coli, UniProt P42641); assay: DRaCALA with […]-ppGpp in overexpression lysate; assay type: cell-based
# Chain of ObgE (P42641 whole entry): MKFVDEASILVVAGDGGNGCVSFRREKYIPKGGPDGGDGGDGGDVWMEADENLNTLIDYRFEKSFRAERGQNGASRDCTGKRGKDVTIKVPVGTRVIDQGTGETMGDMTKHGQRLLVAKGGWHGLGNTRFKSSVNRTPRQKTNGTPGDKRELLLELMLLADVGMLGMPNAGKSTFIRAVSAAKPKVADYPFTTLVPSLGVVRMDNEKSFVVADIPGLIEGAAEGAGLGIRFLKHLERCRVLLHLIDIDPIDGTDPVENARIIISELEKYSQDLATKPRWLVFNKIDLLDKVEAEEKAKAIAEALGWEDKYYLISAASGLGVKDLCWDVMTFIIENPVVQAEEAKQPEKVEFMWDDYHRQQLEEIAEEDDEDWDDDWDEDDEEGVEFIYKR
# RelA = target: T1, RelA; assay: DRaCALA with […]-ppGpp in overexpression lysate; assay type: cell-based
# ^strepLpxA [1] = target: T2, ^strepLpxA; assay: MST
# ^strepLpxA [2] = target: T2, ^strepLpxA; assay: MST; remark: listed apart in the source
# purified protein = substrate: CC(=O)N[C@H]1[C@@H](OP(=O)(O)OP(=O)(O)OC[C@H]2O[C@@H](n3ccc(=O)[nH]c3=O)[C@H](O)[C@@H]2O)O[C@H](CO)[C@@H](O)[C@@H]1O; assay: purified protein
Molecule,binding result (^strepLpxA [1]),binding result (^strepLpxA [2]),further results
Nc1nc2c(ncn2[C@@H]2O[C@H](COP(=O)(O)OP(=O)(O)O)[C@@H](OP(=O)(O)OP(=O)(O)O)[C@H]2O)c(=O)[nH]1 [ppGpp],–,–,% relative to RelA (SpeF): 73 ± 12 % relative to RelA; % relative to RelA (ObgE): 86 ± 12 % relative to RelA; % (reference binding) (RelA): 100 % (reference binding)
B1,binds,–,–
B2,–,binds,–
B3,–,–,Km (purified protein): 494 µM
B4,–,binds,–
B5,binds,–,–
